According to patent US20050260661A1, “Assays for the identification of modulators of MHC class II expression” (priority 2004, published 2005):

Assays:
[1] = biological target: T1, interaction between CIITA and Flag-RFXANK (Homo sapiens, UniProt P33076); assay: CIITA/RFXANK interaction assay, competition with untagged RFXANK; assay type: binding; conditions: FIG. 7
T1 construct: made in house; host or cells: Sf9 insect cells (recombinant baculovirus); CIITA co-infected with a BirA baculovirus
T1 sequence (P33076 1-1130): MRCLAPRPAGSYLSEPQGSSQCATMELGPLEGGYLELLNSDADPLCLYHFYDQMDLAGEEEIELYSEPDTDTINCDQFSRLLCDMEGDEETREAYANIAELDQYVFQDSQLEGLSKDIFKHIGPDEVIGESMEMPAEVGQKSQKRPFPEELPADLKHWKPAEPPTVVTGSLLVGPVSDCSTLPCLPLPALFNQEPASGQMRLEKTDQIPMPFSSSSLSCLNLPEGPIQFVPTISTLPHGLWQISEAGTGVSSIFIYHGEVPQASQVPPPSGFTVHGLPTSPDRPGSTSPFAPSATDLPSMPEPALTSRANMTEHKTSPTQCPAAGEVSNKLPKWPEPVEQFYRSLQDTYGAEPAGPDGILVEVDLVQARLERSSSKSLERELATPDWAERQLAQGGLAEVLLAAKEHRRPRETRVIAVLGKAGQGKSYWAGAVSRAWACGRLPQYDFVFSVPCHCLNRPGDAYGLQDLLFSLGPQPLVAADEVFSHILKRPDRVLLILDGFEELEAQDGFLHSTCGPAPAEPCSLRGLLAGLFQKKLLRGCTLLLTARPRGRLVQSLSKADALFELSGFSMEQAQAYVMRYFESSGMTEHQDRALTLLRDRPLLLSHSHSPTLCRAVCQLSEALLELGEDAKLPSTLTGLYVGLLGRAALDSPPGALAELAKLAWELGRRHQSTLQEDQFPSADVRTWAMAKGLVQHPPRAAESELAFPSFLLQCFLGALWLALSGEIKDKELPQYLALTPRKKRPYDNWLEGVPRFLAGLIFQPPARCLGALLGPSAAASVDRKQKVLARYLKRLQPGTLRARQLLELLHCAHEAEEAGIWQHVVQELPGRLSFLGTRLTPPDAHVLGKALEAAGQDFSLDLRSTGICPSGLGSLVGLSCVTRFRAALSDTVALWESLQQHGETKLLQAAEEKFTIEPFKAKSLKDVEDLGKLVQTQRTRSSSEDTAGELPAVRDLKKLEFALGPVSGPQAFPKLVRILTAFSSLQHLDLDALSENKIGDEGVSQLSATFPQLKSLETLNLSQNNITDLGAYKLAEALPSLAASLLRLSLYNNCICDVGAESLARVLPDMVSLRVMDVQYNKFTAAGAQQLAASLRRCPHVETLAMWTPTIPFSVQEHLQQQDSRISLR
Method: Plasmids. The CIITA gene sequence was cloned into a modified pBAC-2 cp vector (Novagen) with a biotinylation tag inserted at the 5′ end of the gene. The RFXANK gene sequence containing a Flag tag at its N-terminus was cloned into a pFBHT vector (Invitrogen). These plasmids were used to generate recombinant baculoviruses according to standard procedures. Protein production: Sf9 cells grown in SF-900II medium (Invitrogen) were infected at MOI of 10 for 72 h before harvesting. To obtain in vivo biotinylated CIITA, Sf9 cells were co-infected with an E. coli biotin ligase expressing baculovirus (BirA gene) at a MOI of 1. Protein were purified using metal chelating affinity chromatography on HiTrap chelating column (Pharmacia). Purified fractions were pooled and quantified using ESL protein quantification kit (Roche) and the extent of CIITA biotinylation was estimated by pulldown experiments with Streptavidin-coated magnetic beads followed by PAGE analysis.
Assay. […] Wells were washed 5 times with 200 μl of wash solution (PBS; 0.05% Tween 20) and the adequate substrates for HRP were added to the well for either colorimetry, fluorescence or luminescence detection. […]

[2] = biological target: T2, Biotinylated-CIITA (UniProt P33076 1-1130, biotin on the biotinylation tag (in vivo biotinylation by co-expressed E. coli biotin ligase BirA; level close to 100%)); assay: solid-phase plate assay: biotinylated CIITA on a streptavidin well, Flag-RFXANK detected with M2:HRP, colorimetric; assay and negative control each performed 48 times
T2 construct: Made in Sf9 cells from a modified pBAC-2cp baculovirus vector; also called recombinant biotinylated-CIITA; not shown: biotinylation tag inserted at the 5' end of the gene
T2 sequence (looked up): T1 sequence (P33076 1-1130)
Method: Assay. Biotinylated-CIITA (0.5 μg) and 0.8 μg of Flag-RFXANK in 100 μl of assay buffer (50 mM Hepes pH7.8; 10% glycerol; 5 mM MgCl₂; 0.1 mM EDTA; 0.01% NP-40; 200 mM KCl; 0.5% BSA; 0.1% Tween 20; 2 mM DTT) were incubated in a streptavidin-coated microwell for 2 h at room temperature. Wells containing no protein, only biotinylated CIITA or Flag RFXANK were included as controls. Wells were washed 5 times with 200 μl of wash solution (PBS; 0.05% Tween 20). 100 μl of Assay Buffer containing 0.5 μg/ml M2:HRP antibody (Sigma) was added to each well and incubated for 1 h at room temperature. Wells were washed 5 times with 200 μl of wash solution (PBS; 0.05% Tween 20) and the adequate substrates for HRP were added to the well for either colorimetry, fluorescence or luminescence detection.
To examine its reproducibility, the assay and negative control were performed 48 times. […] Increasing amounts of RFXANK were added to the wells containing biotinylated CIITA and Flag-RFXANK in the same assay as described above.

B1: RFXANK having an N-terminal Flag tag (Flag-RFXANK) (other, UniProt O14593 1-260, looked up)
chain: MELTQPAEDLIQTQQTPASELGDPEDPGEEAADGSDTVVLSLFPCTPEPVNPEPDASVSSPQAGSSLKHSTTLTNRQRGNEVSALPATLDSLSIHQLAAQGELDQLKEHLRKGDNLVNKPDERGFTPLIWASAFGEIETVRFLLEWGADPHILAKERESALSLASTGGYTDIVGLLLERDVDINIYDWNGGTPLLYAVRGNHVKCVEALLARGADLTTEADSGYTPMDLAVALGYRKVQQVIENHILKLFQSNLVPADPE
notes: not shown: Flag tag at the N-terminus
reduction of signal of the CIITA/Flag-RFXANK interaction ([1]; equivalent amounts of Flag-RFXANK and RFXANK): approximately 50% | competition of Flag-RFXANK for binding to CIITA ([1]; increasing amounts of RFXANK added to wells containing biotinylated CIITA and Flag-RFXANK): specifically competed by RFXANK for binding to CIITA in a dose-dependent manner | signal to background ratio (S/B) [2]: 11.8
